Measurements from patent publication US20200199241A1 (Chugai, published 2020).
Positions count from the first letter of the chain named.

B1: IgG1-F1281 (antibody)
heavy: QVQLQESGPGLVKPSETLSLTCAVSGHSISHDHAWSWVRQPPGEGLEWIGFISYSGITNYNPSLQGRVTISRDNSKNTLYLQMNSLRAEDTAVYYCARSLARTTAMDYWGEGTLVTVSSASTKGPSVFPLAPSSKSTSGGTAALGCLVKDYFPEPVTVSWNSGALTSGVHTFPAVLQSSGLYSLSSVVTVPSSSLGTQTYICNVNHKPSNTKVDKKVEPKSCDKTHTCPPCPAPELRGGPKVFLFPPKPKDTLYISRGPEVTCVVVDVSHEDPEVKFNWYVDGVEVHNAKTKPREEQYNSTYRVVSVLTVLHQDWLNGKEYKCKVSNKALPAPIEKTISKAKGQPREPQVYTLPPSRDELTKNQVSLTCLVKGFYPSDIAVEWESNGQPENNYKTTPPVLDSDGSFFLYSKLTVDKSRWQQGNVFSCSVMHEALDYHVTKKDLSLSP
light: not shown
notes: EU numbering; copies: 2 + 2
B2: IgG1-F1282 (antibody)
heavy: B1 heavy with G258N, D435H
light: not shown
notes: EU numbering; copies: 2 + 2
B3: IgG1-F1283 (antibody)
heavy: B1 heavy with G258N, K440R, D442E
light: not shown
notes: EU numbering; copies: 2 + 2
B4: IgG1-F1284 (antibody)
heavy: B1 heavy with G258N
light: not shown
notes: EU numbering; copies: 2 + 2
B5: IgG1-F1285 (antibody)
heavy: B1 heavy with S256T, G258T, D435H
light: not shown
notes: EU numbering; copies: 2 + 2
B6: IgG1-F1286 (antibody)
heavy: B1 heavy with S256T, G258T, K440R, D442E
light: not shown
notes: EU numbering; copies: 2 + 2
B7: IgG1-F1287 (antibody)
heavy: B1 heavy with S256T, G258T
light: not shown
notes: EU numbering; copies: 2 + 2
B8: IgG1-F1289 (antibody)
heavy: B1 heavy with G258E, K440R, D442E
light: not shown
notes: EU numbering; copies: 2 + 2
B9: IgG1-F1290 (antibody)
heavy: B1 heavy with G258E
light: not shown
notes: EU numbering; copies: 2 + 2
B10: IgG1-F1291 (antibody)
heavy: B1 heavy with G258T, K440Q, D442S
light: not shown
notes: EU numbering; copies: 2 + 2
B11: IgG1-F1292 (antibody)
heavy: B1 heavy with Y254M, G258T, Y436W, K440R, D442E
light: not shown
notes: EU numbering; copies: 2 + 2
B12: IgG1-F1293 (antibody)
heavy: B1 heavy with G258E, D435H, V438Y, K440R, D442E
light: not shown
notes: EU numbering; copies: 2 + 2
B13: IgG1-F1294 (antibody)
heavy: B1 heavy with G258E, D435H, V438T, K440R, D442E
light: not shown
notes: EU numbering; copies: 2 + 2
B14: IgG1-F1295 (antibody)
heavy: B1 heavy with G258E, D435H, V438F, K440R, D442E
light: not shown
notes: EU numbering; copies: 2 + 2
B15: IgG1-F1296 (antibody)
heavy: B1 heavy with G258E, V438Y, K440R, D442E
light: not shown
notes: EU numbering; copies: 2 + 2
B16: IgG1-F1297 (antibody)
heavy: B1 heavy with G258E, V438T, K440R, D442E
light: not shown
notes: EU numbering; copies: 2 + 2
B17: IgG1-F1298 (antibody)
heavy: B1 heavy with G258E, V438F, K440R, D442E
light: not shown
notes: EU numbering; copies: 2 + 2
B18: IgG1-F1299 (antibody)
heavy: B1 heavy with G258E, D435H, V438Y
light: not shown
notes: EU numbering; copies: 2 + 2
B19: IgG1-F1300 (antibody)
heavy: B1 heavy with G258E, D435H, V438T
light: not shown
notes: EU numbering; copies: 2 + 2
B20: IgG1-F1301 (antibody)
heavy: B1 heavy with G258E, D435H, V438F
light: not shown
notes: EU numbering; copies: 2 + 2
B21: IgG1-F1302 (antibody)
heavy: B1 heavy with G258E, V438Y
light: not shown
notes: EU numbering; copies: 2 + 2
B22: IgG1-F1303 (antibody)
heavy: B1 heavy with G258E, V438T
light: not shown
notes: EU numbering; copies: 2 + 2

molecular target: T1, soluble human FcRn complexed with β2-microglobulin (human, UniProt P61769 21-119, limits assumed); assay: Biacore SPR, pH 7.0;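 also: test antibodies captured on a Protein L chip with human FcRn flowed over as analyte, KD obtained as the ratio of dissociation to association rate constants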
T1 construct: also called hFcRn
T1 sequence (chain, as listed by the source limits assumed, chain 1 of 2): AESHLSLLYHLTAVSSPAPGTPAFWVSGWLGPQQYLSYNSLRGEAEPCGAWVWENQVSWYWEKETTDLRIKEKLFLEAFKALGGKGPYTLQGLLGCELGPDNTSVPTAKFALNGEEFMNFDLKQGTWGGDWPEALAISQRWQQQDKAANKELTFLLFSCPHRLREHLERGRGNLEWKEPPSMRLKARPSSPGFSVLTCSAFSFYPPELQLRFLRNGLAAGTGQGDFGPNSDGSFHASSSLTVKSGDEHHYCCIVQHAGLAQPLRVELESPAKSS
T1 sequence (P61769 21-119 limits assumed, chain 2 of 2): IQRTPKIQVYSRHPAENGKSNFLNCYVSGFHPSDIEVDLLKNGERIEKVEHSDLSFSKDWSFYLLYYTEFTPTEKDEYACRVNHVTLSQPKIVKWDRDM

Q: How did the Kd turn out when B1 was run?
A: 174 nM

Q: With B2 as the binder, how does the Kd read?
A: 76.9 nM

Q: How did the Kd turn out when B3 was run?
A: 134 nM

Q: Which Kd does the source give for B4 here?
A: 112 nM

Q: B5 was tested. Which Kd did it give?
A: 93.6 nM

Q: Which Kd does the source give for B6 here?
A: 157 nM

Q: With B7 as the binder, how does the Kd read?
A: 150 nM

Q: How did the Kd turn out when B8 was run?
A: 333 nM

Q: Which Kd does the source give for B9 here?
A: 111 nM

Q: B10 was tested. Which Kd did it give?
A: 151 nM

Q: Which Kd does the source give for B11 here?
A: 424 nM

Q: B12 was tested. Which Kd did it give?
A: 161 nM

Q: Which Kd does the source give for B13 here?
A: 200 nM

Q: For B14, which Kd is on record?
A: 98.4 nM

Q: B15 was tested. Which Kd did it give?
A: 227 nM

Q: Which Kd does the source give for B16 here?
A: 250 nM

Q: B17 was tested. Which Kd did it give?
A: 147 nM

Q: B18 was tested. Which Kd did it give?
A: 150 nM

Q: B19 was tested. Which Kd did it give?
A: 163 nM

Q: Which Kd does the source give for B20 here?
A: 83 nM

Q: B21 was tested. Which Kd did it give?
A: 215 nM

Q: How did the Kd turn out when B22 was run?
A: 210 nM
